From publication doi:10.1101/2020.07.31.231746

Columns and labels:
Test in all cases: flow cytometry on cells
[1] = biological target: Y353, yeast surface-displayed ACE2(614) variant from sort 4 (human) (UniProt Q9BYF1)
[2] = biological target: Y373, yeast surface-displayed ACE2(614) variant from sort 5 (human) (UniProt Q9BYF1)
[3] = biological target: best-characterized ACE2(614) mutant from sort 3.1, yeast surface-displayed (human) (UniProt Q9BYF1)

Question: Which Kd [1] does the source give for “SARS-CoV-2 spike RBD monomer (328-533), 8XHis tag and AviTag, biotinylated (from UniProt P0DTC2 328-533) (domain or fragment)” here?
Answer: 0.19 nM

Question: And the Kd [2]?
Answer: 0.12 nM

Question: And the Kd [3]?
Answer: 0.52 nM
